The target of experiment [1] is human melanocortin-4 receptor (human) (UniProt P32245). As to the kind of experiment: cell-based or functional assay.
Experiment [2] has the same target. The experiment can be described thus: [I125]-NDP-α-MSH competition, hMC4-R HEK-293 membranes.
Experiment [3] addresses melanocortin-1 receptor (mouse (B-16 melanoma cells); in some instances human (hMC1-R)) (UniProt Q01727). The experiment can be described thus: [I125]-NDP-α-MSH competition, MC1-R membranes.

Sequence of melanocortin-1 receptor (mouse (B-16 melanoma cells); in some instances human (hMC1-R)) (Q01727 whole entry): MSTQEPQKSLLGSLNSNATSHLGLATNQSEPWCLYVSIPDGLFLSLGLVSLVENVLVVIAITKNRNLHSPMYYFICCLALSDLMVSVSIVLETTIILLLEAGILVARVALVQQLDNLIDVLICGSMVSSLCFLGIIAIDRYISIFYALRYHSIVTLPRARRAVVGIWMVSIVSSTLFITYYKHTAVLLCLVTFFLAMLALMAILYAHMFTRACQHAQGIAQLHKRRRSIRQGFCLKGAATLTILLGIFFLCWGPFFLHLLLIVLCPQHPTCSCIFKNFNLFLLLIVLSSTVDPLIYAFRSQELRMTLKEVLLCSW
Sequence of human melanocortin-4 receptor (human) (P32245 whole entry): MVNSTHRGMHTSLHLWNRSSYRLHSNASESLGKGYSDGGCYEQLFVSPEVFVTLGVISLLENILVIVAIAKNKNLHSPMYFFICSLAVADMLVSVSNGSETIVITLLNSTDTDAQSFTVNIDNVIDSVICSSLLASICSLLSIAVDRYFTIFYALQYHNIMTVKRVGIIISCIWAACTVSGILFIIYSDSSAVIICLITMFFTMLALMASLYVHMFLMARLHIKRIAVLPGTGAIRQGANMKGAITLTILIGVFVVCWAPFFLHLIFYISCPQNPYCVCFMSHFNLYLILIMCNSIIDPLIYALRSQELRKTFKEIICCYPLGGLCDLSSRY

In the case of “Ac-Arg-cyclo(Glu-Dab-D-Phe(4-CF3)-Arg-Trp-Orn)-NH2 (peptide)”, in experiment [1], the Intrinsic Activity, cAMP, 0.1 ng/mL Doxycycline is 0.5% and the Intrinsic Activity, cAMP, 10 ng/mL Doxycycline amounted to 53%. In addition, the inhibition constant Ki (commonly a measure of affinity in units of concentration, obtained from inhibition or displacement) in experiment [2] came out at 0.06 nM.
“Ac-D-Arg-cyclo(Orn-His-D-Phe(2-Cl)-Arg-Trp-Glu)-NH2 (peptide)”: the Ki in experiment [3] stood at 2 nM. Also, in experiment [1], the EC50, cAMP, 0.1 ng/mL Doxycycline stood at 0.21 nM; the EC50, cAMP, 10 ng/mL Doxycycline turned out to be 0.085 nM; the Intrinsic Activity, cAMP, 0.1 ng/mL Doxycycline amounted to 94%; the Intrinsic Activity, cAMP, 10 ng/mL Doxycycline was 94%. The substance further gave a Ki in experiment [2] of 1 nM.
In experiment [1], “Ac-Arg-cyclo(Glu-Dab-D-Phe(3-NO2)-Arg-Trp-Orn)-NH2 (peptide)” displayed an EC50, cAMP, 0.1 ng/mL Doxycycline of 2 nM; an EC50, cAMP, 10 ng/mL Doxycycline of 0.55 nM; an Intrinsic Activity, cAMP, 0.1 ng/mL Doxycycline of 17%; an Intrinsic Activity, cAMP, 10 ng/mL Doxycycline of 95%. In addition, the Ki in experiment [2] amounted to 0.7 nM.
“Ac-D-Arg-cyclo(Orn-His-D-Phe(3-Cl)-Arg-Trp-Glu)-NH2 (peptide)”: the Ki in experiment [3] stood at 3 nM. Further, in experiment [1], the EC50, cAMP, 0.1 ng/mL Doxycycline is 0.64 nM; the EC50, cAMP, 10 ng/mL Doxycycline came out at 0.4 nM; the Intrinsic Activity, cAMP, 0.1 ng/mL Doxycycline came to 22%; the Intrinsic Activity, cAMP, 10 ng/mL Doxycycline was determined as 95%. For the same substance, in experiment [2], the Ki was found to be 0.6 nM.
In experiment [1], “Ac-D-Arg-cyclo(Orn-His-D-Phe(2-F)-Arg-Trp-Glu)-NH2 (peptide)” came in with an EC50, cAMP, 0.1 ng/mL Doxycycline of 0.13 nM; an EC50, cAMP, 10 ng/mL Doxycycline of 0.13 nM; an Intrinsic Activity, cAMP, 0.1 ng/mL Doxycycline of 86%; an Intrinsic Activity, cAMP, 10 ng/mL Doxycycline of 90%. Moreover, the Ki in experiment [2] was determined as 0.95 nM.
For the substance “Ac-Arg-cyclo(Glu-Dab-D-Phe(3,4-diOMe)-Arg-Trp-Orn)-NH2 (peptide)”, in experiment [1], the EC50, cAMP, 0.1 ng/mL Doxycycline worked out at 75 nM; the EC50, cAMP, 10 ng/mL Doxycycline turned out to be 2 nM; the Intrinsic Activity, cAMP, 0.1 ng/mL Doxycycline is 23%; the Intrinsic Activity, cAMP, 10 ng/mL Doxycycline is 94%.
For “Ac-Arg-cyclo(Glu-Dab-D-Phe(4-NO2)-Arg-Trp-Orn)-NH2 (peptide)”, in experiment [1], the EC50, cAMP, 0.1 ng/mL Doxycycline turned out to be 0.7 nM; the EC50, cAMP, 10 ng/mL Doxycycline stood at 0.45 nM; the Intrinsic Activity, cAMP, 0.1 ng/mL Doxycycline was determined as 15%; the Intrinsic Activity, cAMP, 10 ng/mL Doxycycline came out at 99%. In addition, the Ki in experiment [2] was 0.45 nM.
Take “Ac-Arg-cyclo(Glu-Dab-D-Phe(3-Cl)-Arg-Trp-Orn)-NH2 (peptide)”: the Ki in experiment [3] came out at 1 nM. For the same substance, in experiment [1], the EC50, cAMP, 0.1 ng/mL Doxycycline was 0.56 nM; the EC50, cAMP, 10 ng/mL Doxycycline came to 0.095 nM; the Intrinsic Activity, cAMP, 0.1 ng/mL Doxycycline was 36%; the Intrinsic Activity, cAMP, 10 ng/mL Doxycycline turned out to be 99%.
Take “Ac-Arg-cyclo(Glu-Dab-D-Phe(3,4-diF)-Arg-Trp-Orn)-NH2 (peptide)”: in experiment [1], the EC50, cAMP, 0.1 ng/mL Doxycycline was found to be 0.125 nM; the EC50, cAMP, 10 ng/mL Doxycycline was found to be 0.12 nM; the Intrinsic Activity, cAMP, 0.1 ng/mL Doxycycline turned out to be 74%; the Intrinsic Activity, cAMP, 10 ng/mL Doxycycline was 90%. In experiment [2], this substance showed a Ki of 0.3 nM.
Turning to “Ac-Arg-cyclo(Glu-Dab-D-Phe(2,4-diMe)-Arg-Trp-Orn)-NH2 (peptide)”, in experiment [1], the EC50, cAMP, 10 ng/mL Doxycycline is 0.5 nM; the Intrinsic Activity, cAMP, 0.1 ng/mL Doxycycline is 8%; the Intrinsic Activity, cAMP, 10 ng/mL Doxycycline stood at 97%. The Ki in experiment [2] worked out at 0.085 nM.
In experiment [1], “Ac-Arg-cyclo(Glu-Dab-D-Phe(3-Me)-Arg-Trp-Orn)-NH2 (peptide)” showed an EC50, cAMP, 0.1 ng/mL Doxycycline of 0.42 nM; an EC50, cAMP, 10 ng/mL Doxycycline of 0.22 nM; an Intrinsic Activity, cAMP, 0.1 ng/mL Doxycycline of 35%; an Intrinsic Activity, cAMP, 10 ng/mL Doxycycline of 97%. For the same substance, in experiment [2], the Ki was 0.4 nM.
For the substance “Ac-Arg-cyclo(Glu-Dab-D-Phe(2-Cl)-Arg-Trp-Orn)-NH2 (peptide)”, the Ki in experiment [3] stood at 1 nM. In experiment [1], this substance returned an EC50, cAMP, 0.1 ng/mL Doxycycline of 0.34 nM; an EC50, cAMP, 10 ng/mL Doxycycline of 0.045 nM; an Intrinsic Activity, cAMP, 0.1 ng/mL Doxycycline of 91%; an Intrinsic Activity, cAMP, 10 ng/mL Doxycycline of 96%.
With “Ac-Arg-cyclo(Glu-Dab-D-Phe(4-Ph)-Arg-Trp-Orn)-NH2 (peptide)”, in experiment [1], the EC50, cAMP, 10 ng/mL Doxycycline is 0.8 nM; the Intrinsic Activity, cAMP, 0.1 ng/mL Doxycycline was found to be 14%; the Intrinsic Activity, cAMP, 10 ng/mL Doxycycline was determined as 100%. In experiment [2], this substance yielded a Ki of 0.5 nM.
“Ac-Arg-cyclo(Glu-Dab-D-Tyr-Arg-Trp-Orn)-NH2 (peptide)”: in experiment [1], the EC50, cAMP, 0.1 ng/mL Doxycycline worked out at 48 nM; the EC50, cAMP, 10 ng/mL Doxycycline is 0.55 nM; the Intrinsic Activity, cAMP, 0.1 ng/mL Doxycycline stood at 71%; the Intrinsic Activity, cAMP, 10 ng/mL Doxycycline stood at 87%. Also, the inhibition constant (Ki) in experiment [2] was determined as 75 nM.
In turn, “Ac-Arg-cyclo(Glu-Hyp-D-Phe(2-F)-Arg-Trp-Orn)-NH2 (peptide)” yielded a Ki in experiment [3] of 53 nM. In addition, in experiment [1], the EC50, cAMP, 0.1 ng/mL Doxycycline worked out at 1 nM; the EC50, cAMP, 10 ng/mL Doxycycline was determined as 0.08 nM; the Intrinsic Activity, cAMP, 0.1 ng/mL Doxycycline is 57%; the Intrinsic Activity, cAMP, 10 ng/mL Doxycycline came out at 90%.
In experiment [1], “Ac-Arg-cyclo(Glu-Dab-D-Phe(2-Me)-Arg-Trp-Orn)-NH2 (peptide)” registered an EC50, cAMP, 0.1 ng/mL Doxycycline of 0.14 nM; an EC50, cAMP, 10 ng/mL Doxycycline of 0.085 nM; an Intrinsic Activity, cAMP, 0.1 ng/mL Doxycycline of 83%; an Intrinsic Activity, cAMP, 10 ng/mL Doxycycline of 97%. The Ki in experiment [2] amounted to 0.5 nM.
In experiment [1], “Ac-Arg-cyclo(Glu-Dab-D-Phe(2-NO2)-Arg-Trp-Orn)-NH2 (peptide)” yielded an EC50, cAMP, 10 ng/mL Doxycycline of 0.2 nM; an Intrinsic Activity, cAMP, 0.1 ng/mL Doxycycline of 78%; an Intrinsic Activity, cAMP, 10 ng/mL Doxycycline of 93%. Also, in experiment [2], the Ki worked out at 11 nM.
In experiment [1], “Ac-Arg-cyclo(Glu-Dab-D-Phe(2-CF3)-Arg-Trp-Orn)-NH2 (peptide)” had an EC50, cAMP, 0.1 ng/mL Doxycycline of 0.125 nM; an EC50, cAMP, 10 ng/mL Doxycycline of 0.06 nM; an Intrinsic Activity, cAMP, 0.1 ng/mL Doxycycline of 85%; an Intrinsic Activity, cAMP, 10 ng/mL Doxycycline of 96%. This substance also registered a Ki in experiment [2] of 0.6 nM.
On the same counts, the results for “Ac-Arg-cyclo(Glu-Dap-D-Phe(2-Cl)-Arg-Trp-Orn)-NH2 (peptide)” are 16 nM, 0.47 nM, 23%, 84% and 9 nM.
“Ac-Arg-cyclo(Glu-Dab-D-Phe(4-NH2)-Arg-Trp-Orn)-NH2 (peptide)”: in experiment [1], the EC50, cAMP, 0.1 ng/mL Doxycycline is 29 nM; the EC50, cAMP, 10 ng/mL Doxycycline amounted to 0.6 nM; the Intrinsic Activity, cAMP, 0.1 ng/mL Doxycycline is 35%; the Intrinsic Activity, cAMP, 10 ng/mL Doxycycline is 94%. The same substance registered a Ki in experiment [2] of 48 nM.
For “Ac-Arg-cyclo(Glu-Dap-D-Phe(3-Cl)-Arg-Trp-Orn)-NH2 (peptide)”, in experiment [1], the EC50, cAMP, 10 ng/mL Doxycycline was 0.95 nM; the Intrinsic Activity, cAMP, 0.1 ng/mL Doxycycline stood at 6%; the Intrinsic Activity, cAMP, 10 ng/mL Doxycycline amounted to 89%. For the same substance, the inhibition constant (Ki) in experiment [2] stood at 4 nM.
As to “Ac-Arg-cyclo(Glu-Dab-D-Phe(3-OMe)-Arg-Trp-Orn)-NH2 (peptide)”, in experiment [1], the EC50, cAMP, 0.1 ng/mL Doxycycline worked out at 1 nM; the EC50, cAMP, 10 ng/mL Doxycycline worked out at 0.065 nM; the Intrinsic Activity, cAMP, 0.1 ng/mL Doxycycline is 64%; the Intrinsic Activity, cAMP, 10 ng/mL Doxycycline turned out to be 100%.
Regarding “Ac-Arg-cyclo(Glu-Dab-D-Phe(3,5-diF)-Arg-Trp-Orn)-NH2 (peptide)”, in experiment [1], the EC50, cAMP, 0.1 ng/mL Doxycycline was determined as 0.95 nM; the EC50, cAMP, 10 ng/mL Doxycycline came out at 0.12 nM; the Intrinsic Activity, cAMP, 0.1 ng/mL Doxycycline is 64%; the Intrinsic Activity, cAMP, 10 ng/mL Doxycycline was found to be 95%. Moreover, the Ki in experiment [2] amounted to 2 nM.
In experiment [1], “Ac-Arg-cyclo(Glu-Dab-D-Phe(4-tBu)-Arg-Trp-Orn)-NH2 (peptide)” gave an Intrinsic Activity, cAMP, 0.1 ng/mL Doxycycline of 2% and an Intrinsic Activity, cAMP, 10 ng/mL Doxycycline of 9%. In experiment [2], the Ki is 4 nM.
For “Ac-Arg-cyclo(Glu-Ser(Bzl)-D-Phe(2-Cl)-Arg-Trp-Orn)-NH2 (peptide)”, in experiment [1], the EC50, cAMP, 0.1 ng/mL Doxycycline came out at 0.31 nM; the EC50, cAMP, 10 ng/mL Doxycycline was determined as 0.373 nM; the Intrinsic Activity, cAMP, 0.1 ng/mL Doxycycline stood at 36%; the Intrinsic Activity, cAMP, 10 ng/mL Doxycycline was 100%. This substance also returned a Ki in experiment [2] of 0.3 nM.
Regarding “Ac-Arg-cyclo(Glu-Dab-D-Phe(4-Me)-Arg-Trp-Orn)-NH2 (peptide)”, in experiment [1], the EC50, cAMP, 0.1 ng/mL Doxycycline came out at 0.165 nM; the EC50, cAMP, 10 ng/mL Doxycycline stood at 0.2 nM; the Intrinsic Activity, cAMP, 0.1 ng/mL Doxycycline amounted to 16%; the Intrinsic Activity, cAMP, 10 ng/mL Doxycycline was found to be 90%. The substance also displayed a Ki in experiment [2] of 0.145 nM.
For “Ac-Arg-cyclo(Glu-Orn-D-Phe(3-Cl)-Arg-Trp-Orn)-NH2 (peptide)”, in that order: 0.95 nM, 0.14 nM, 36%, 93% and 1 nM.
On the same counts, the results for “Ac-Arg-cyclo(Glu-Dab-D-Phe(2-CN)-Arg-Trp-Orn)-NH2 (peptide)” are 34 nM, 0.5 nM, 64%, 97% and 45 nM.
As to “Ac-Arg-cyclo(Glu-Dab-D-Phe(3,4,5-triF)-Arg-Trp-Orn)-NH2 (peptide)”, in experiment [1], the EC50, cAMP, 0.1 ng/mL Doxycycline was 0.7 nM; the EC50, cAMP, 10 ng/mL Doxycycline amounted to 0.33 nM; the Intrinsic Activity, cAMP, 0.1 ng/mL Doxycycline was determined as 37%; the Intrinsic Activity, cAMP, 10 ng/mL Doxycycline was found to be 97%. In experiment [2], this substance came in with an inhibitory constant (Ki) of 0.667 nM.
In the case of “Ac-Arg-cyclo(Glu-Phe(3-C(═O)-NH2)-D-Phe(2-Cl)-D-Phe-Arg-Trp-Orn)-NH2 (peptide)”, the Ki in experiment [3] came out at 545 nM. Further, in experiment [1], the EC50, cAMP, 10 ng/mL Doxycycline came out at 4 nM; the Intrinsic Activity, cAMP, 0.1 ng/mL Doxycycline came out at 6%; the Intrinsic Activity, cAMP, 10 ng/mL Doxycycline came out at 93%.

These data come from patent publication US20100311648A1.
